Reference: PMC5009318, “Structural insights into the IgE mediated responses induced by the allergens Hev b 8 and Zea m 12 in their dimeric forms” (Scientific Reports, 2016)
“And” between values parts separate entries of the source, which are not always exact repeats. Equal entries are not always repeated.

Molecular target: the molecule itself
Experiment: SEC; HiLoad 16/60 Superdex 75, 50 mM Tris-HCl pH 7.5; samples incubated 1 week at 4 °C and applied at 10 mg/mL; calibrated with myoglobin, alpha-chymotrypsin and BSA

B1: recombinant profilin allergen rHev b 8 (isoform Hev b 8.0102) from Hevea brasiliensis (natural protein)
chain: MSWQAYVDDHLMCEIEGNHLSAAAIIGQDGSVWAQSANFPQFKSEEITGIMSDFHEPGTLAPTGLYIGGTKYMVIQGEPGAVIRGKKGPGGVTVKKTNQALIIGIYDEPMTPGQCNMIVERLGDYLIDQGY
notes: Cloned in pET28c; The dimer is held by a disulfide bridge between Cys13 of both chains; also called monomeric rHev b 8; dimeric rHev b 8; source: E. coli Rosetta (DE3), purified (Ni-NTA, enterokinase cleavage, mono Q anion exchange; oligomers separated by SEC)
stoichiometry N: 2 and 3 and 4
